Experimental data from patent US20240245613A1, “PEPTIDE LIQUID DROPLETS AND METHODS OF USING THE SAME” (RAMOT AT TEL AVIV UNIVERSITY LTD., priority 2021, published 2024).
Entries after “also recorded” stand apart in the source; their conditions may differ.

Tests used:
Type in all cases: physicochemical
[1] = Phase diagrams / liquid-liquid phase separation (turbidity at 500 nm, optical and confocal microscopy); settings: 0.2 M NaCl; for liquid-liquid phase separation (LLPS) / droplet formation, in words: as a function of peptide concentration and pH; for peptide concentration at which phase separation is observed: pH increased until turbidity appeared
Method: 150 μl of 5, 10, 20 and 30 mM peptide solutions were prepared in 20 mM of the suitable buffer (citrate buffer for a pH range of 3-6, tris buffer for pH range of 7-9 and ammonium bicarbonate to a pH range of 9-12) with 0.2 M NaCl. The pH was increased gradually until a turbidity appeared and measured as described below. The turbidity of 35 μl was measured in triplicates at λ=500 nm. This process repeated at higher pH, the pH increased until the turbidity faded, and a sediment appeared. All experiments were performed in triplicates and the presented value is the average.
150 μl of 20 μM peptide solutions were prepared in 20 mM Tris buffer. The pH was adjusted to the desired value of 6, 7, 8, 9, 10 and 11. The turbidity of 35 μl was measured in triplicates at λ=500 nm.
All samples were imaged in a 96 Well Black Glass bottom plate, glass 1.5H (made by Hangzhou Xinyou, and purchased from Danyel Biotech) 10 minutes after preparation. The images were taken by Zeiss Zen 900 confocal microscope with ×20/0.8 NA Plan-Apochromat air objective. The light microscopy images were taken at PMT mode. PMT imaging were taken with 561 nm laser and fluorescence imaging were taken with 488, 561 and 405 nm lasers for fluorescein, rhodamine B and GFP, respectively.
A phase diagram was created by increasing the pH at various peptide concentrations until a visible turbidity occurred. The turbidity was measured as the absorbance at λ=500 nm. To confirm that the turbidity occurred as a result of coacervation rather than precipitation, we performed an optical microscopy analysis of 20 mM peptide solution at pH 8.

[2] = Fluorescence recovery after photobleaching (FRAP) of peptide droplets; settings: for apparent diffusion coefficient, comparison in words: among the four LLPS-promoting peptides; for Apparent diffusion coefficient D: droplets prepared with 0.5% FITC labeled peptide, calculated from recovery time; for mobility and dynamics of the droplets: unit not given
Method: FRAP experiments were performed by a Zeiss Zen 900 confocal microscope with ×20/0.8 NA Plan-Apochromat air objective. A circular area with radius of 2.5 μm was bleached with a 488 nm laser 100% intensity at 10 iterations; subsequent recovery of the bleached area was recorded with a 488 nm laser. Photobleaching correction and recovery time were calculated using OriginLab. The final FRAP recovery curve is the average of recovery curves collected from five separate droplets.
A fluorescence […] after photo bleaching (FRAP) used to evaluate the diffusion of the droplets. The droplets were prepared with 0.5% of FITC labeled peptide and were observed by confocal microscope. The apparent diffusion coefficients were calculated as followed: […]

[3] = Encapsulation efficiency of fluorescent payloads in peptide droplets; settings: 20 mM peptide, 20 mM Tris + 0.2 M NaCl, pH 8
Method: 1 mM Stock solutions of the fluorescein and Rhodamine B dye molecules were prepared in 20 mM Tris buffer. A 20 mM peptide coacervated solutions were prepared in 20 mM Tris+0.2 M NaCl at pH 8. A 148.5 μl of peptide solution was mixed with 1.5 μl of dye solution in a 1.5 ml Eppendorf tube and was pipetted. The 15 μl of GFP solution was added to 135 μl of peptide solution and was mixed in a 1.5 ml Eppendorf tube and was pipetted. After 10 minutes the samples were centrifuged at 15,000 rcf for 10 minutes. A volume of 120 μl from the supernatant was collected and vortexed and then the absorbance of 35 μl triplicates was measured in a 384 well black plate by Biotek H1 synergy plate reader (purchased from Lumitron, Israel). For GFP, a 7.5 μl of 20 mM Tris buffer to a 7.5 μl GFP aliquot from the purchased stock solution. The 15 μl of GFP solution was added to 135 μl of peptide solution and was mixed in a 1.5 ml Eppendorf tube and was pipetted. The concentration of GFP at the supernatant was measured via fluorescence. All experiments were performed in triplicate. The concentration of the supernatant solutions determinate by calibration curves. Imaging was made to 30 μl of uncentrifuged samples.
LLPS are widely known for the ability to encapsulate small molecules or proteins. This characteristic is important for drug delivery and to exploits coacervate as microreactors. In order to investigate the encapsulation capacity of the designed peptides two fluorescent dyes were used (fluorescein and rhodamine B) and the protein GFP. The peptides WGR-1, WGR-3, WGR-4 and WGR-5 were chosen for this experiment for their diverse chemical characteristics. The encapsulation efficiency was measured via bulk measurements and images of the droplets with the dyes were taken in a fluorescence confocal microscope.

Row | Sequence | liquid-liquid phase separation (LLPS) / droplet formation, in words [1] | apparent diffusion coefficient, comparison in words ([2]; FRAP) | apparent diffusion coefficient (D), fold larger than that of WGR-5 ([2]; FRAP, compared with WGR-5) | Apparent diffusion coefficient D ([2]; FRAP) | encapsulation efficiency of GFP, in words [3] | encapsulation efficiency of fluorescein, in words [3] | mobility and dynamics of the droplets [2] | peptide concentration at which phase separation is observed [1]
1 | WGKGKGKGWPGVGY | showed no visual turbidity; also recorded: LLPS was not observed | – | – | – | – | – | – | –
2 | WGRGRGRGWPGVG (WGRGRGRGWPGVGF) [WGR-2] | arrested phase separation; also recorded: LLPS was not observed | – | – | – | – | – | – | –
3 | WGRGRGRGWPGVGF [WGR-3] | created LLPS at higher pH value comparing to WGR-1 | largest apparent diffusion coefficient | more than 5 fold | 5.52E−14 m^2 sec^−1 | lowest encapsulation efficiency | lowest encapsulation efficiency | – | –
4 | WGRGRGRGWPGVGY [WGR-1] | – | – | – | 4.518E−14 m^2 sec^−1 | – | no significant difference | 4.52E-14 | –
5 | WGRGRGRGWY [WGR-4] | exhibit phase separation at more moderate conditions | lower diffusion coefficient than WGR-1 | – | 2.36E−14 m^2 sec^−1 | highest encapsulation efficiency | no significant difference | 2.36E-14 | 5 mM
6 | WGRGRGWPGVGY [WGR-5] | perform a phase separation at similar conditions to WGR-4 | lowest diffusion | – | 9.27E−15 m^2 sec^−1 | compromised encapsulation efficiency | – | – | 5 mM
